Test results reported in patent US20030104423A1 (WISCONSIN ALUMNI RESEARCH FOUNDATION, published 2003).
Where a chain is given by its changes, count along the chain named. Names may count otherwise.

B1: β′1-309, untagged (pTA518) (enzyme)
chain: MKDLLKFLKAQTKTEEFDAIKIALASPDMIRSWSFGEVKKPETINYRTFKPERDGLFCARIFGPVKDYECLCGKYKRLKHRGVICEKCGVEVTQTKVRRERMGHIELASPTAHIWFLKSLPSRIGLLLDMPLRDIERVLYFESYVVIEGGMTNLERQQILTEEQYLDALEEFGDEFDAKMGAEAIQALLKSMDLEQECEQLREELNETNSETKRKKLTKRIKLLEAFVQSGNKPEWMILTVLPVLPPDLRPLVPLDGGRFATSDLNDLYRRVINRNNRLKRLLDLAAPDIIVRNEKRMLQEAVDALLDN
B2: β′60-309, untagged (pTA528) (enzyme)
chain: RIFGPVKDYECLCGKYKRLKHRGVICEKCGVEVTQTKVRRERMGHIELASPTAHIWFLKSLPSRIGLLLDMPLRDIERVLYFESYVVIEGGMTNLERQQILTEEQYLDALEEFGDEFDAKMGAEAIQALLKSMDLEQECEQLREELNETNSETKRKKLTKRIKLLEAFVQSGNKPEWMILTVLPVLPPDLRPLVPLDGGRFATSDLNDLYRRVINRNNRLKRLLDLAAPDIIVRNEKRMLQEAVDALLDN
B3: β′100-309, untagged (pTA530) (enzyme)
chain: ERMGHIELASPTAHIWFLKSLPSRIGLLLDMPLRDIERVLYFESYVVIEGGMTNLERQQILTEEQYLDALEEFGDEFDAKMGAEAIQALLKSMDLEQECEQLREELNETNSETKRKKLTKRIKLLEAFVQSGNKPEWMILTVLPVLPPDLRPLVPLDGGRFATSDLNDLYRRVINRNNRLKRLLDLAAPDIIVRNEKRMLQEAVDALLDN
B4: β′1-319 wild type, untagged (pTA620) (enzyme)
chain: MKDLLKFLKAQTKTEEFDAIKIALASPDMIRSWSFGEVKKPETINYRTFKPERDGLFCARIFGPVKDYECLCGKYKRLKHRGVICEKCGVEVTQTKVRRERMGHIELASPTAHIWFLKSLPSRIGLLLDMPLRDIERVLYFESYVVIEGGMTNLERQQILTEEQYLDALEEFGDEFDAKMGAEAIQALLKSMDLEQECEQLREELNETNSETKRKKLTKRIKLLEAFVQSGNKPEWMILTVLPVLPPDLRPLVPLDGGRFATSDLNDLYRRVINRNNRLKRLLDLAAPDIIVRNEKRMLQEAVDALLDNGRRGRAITGS
B5: β′ mutant N274P (enzyme)
chain: B4 chain with N274P
B6: β′1-319 N266D (pTA610) (enzyme)
chain: B4 chain with N266D
B7: β′ mutant L299D (enzyme)
chain: B4 chain with L299D
B8: β′1-319 Y269A (pTA611) (enzyme)
chain: B4 chain with Y269A
B9: β′1-319 K280E (pTA613) (enzyme)
chain: B4 chain with K280E
B10: β′1-319 N309D (pTA619) (enzyme)
chain: B4 chain with N309D
B11: β′ mutant V272D (enzyme)
chain: B4 chain with V272D
B12: β′ mutant E301P (enzyme)
chain: B4 chain with E301P
B13: HMK-His6-β′(100-309), IC5-labeled (pTA133) (enzyme)
chain: MARRASVHHHHHHMERMGHIELASPTAHIWFLKSLPSRIGLLLDMPLRDIERVLYFESYVVIEGGMTNLERQQILTEEQYLDALEEFGDEFDAKMGAEAIQALLKSMDLEQECEQLREELNETNSETKRKKLTKRIKLLEAFVQSGNKPEWMILTVLPVLPPDLRPLVPLDGGRFATSDLNDLYRRVINRNNRLKRLLDLAAPDIIVRNEKRMLQEAVDALLDN
notes: also called labeled β′-fragment; IC5-labeled β′-fragment
B14: His6-HMK-β′1-300 (pTA524) (enzyme)
chain: MKDLLKFLKAQTKTEEFDAIKIALASPDMIRSWSFGEVKKPETINYRTFKPERDGLFCARIFGPVKDYECLCGKYKRLKHRGVICEKCGVEVTQTKVRRERMGHIELASPTAHIWFLKSLPSRIGLLLDMPLRDIERVLYFESYVVIEGGMTNLERQQILTEEQYLDALEEFGDEFDAKMGAEAIQALLKSMDLEQECEQLREELNETNSETKRKKLTKRIKLLEAFVQSGNKPEWMILTVLPVLPPDLRPLVPLDGGRFATSDLNDLYRRVINRNNRLKRLLDLAAPDIIVRNEKRMLQ
notes: range 1-300
B15: His6-HMK-β′1-280 (pTA523) (enzyme)
chain: MKDLLKFLKAQTKTEEFDAIKIALASPDMIRSWSFGEVKKPETINYRTFKPERDGLFCARIFGPVKDYECLCGKYKRLKHRGVICEKCGVEVTQTKVRRERMGHIELASPTAHIWFLKSLPSRIGLLLDMPLRDIERVLYFESYVVIEGGMTNLERQQILTEEQYLDALEEFGDEFDAKMGAEAIQALLKSMDLEQECEQLREELNETNSETKRKKLTKRIKLLEAFVQSGNKPEWMILTVLPVLPPDLRPLVPLDGGRFATSDLNDLYRRVINRNNRLK
notes: range 1-280
B16: His6-tagged β′178-309 (pTA537) (enzyme)
chain: AKMGAEAIQALLKSMDLEQECEQLREELNETNSETKRKKLTKRIKLLEAFVQSGNKPEWMILTVLPVLPPDLRPLVPLDGGRFATSDLNDLYRRVINRNNRLKRLLDLAAPDIIVRNEKRMLQEAVDALLDN
B17: His6-tagged β′60-309 (pTA532) (enzyme)
chain: B2 chain
B18: His6-tagged β′100-309 (pTA533) (enzyme)
chain: B3 chain
B19: His6-tagged β′200-309 (pTA538) (enzyme)
chain: QLREELNETNSETKRKKLTKRIKLLEAFVQSGNKPEWMILTVLPVLPPDLRPLVPLDGGRFATSDLNDLYRRVINRNNRLKRLLDLAAPDIIVRNEKRMLQEAVDALLDN
B20: β′260-309 with C-terminal His6 (pTA546) (enzyme)
chain: FATSDLNDLYRRVINRNNRLKRLLDLAAPDIIVRNEKRMLQEAVDALLDNHHHHHH
B21: His6-tagged β′33-309 (pTA531) (enzyme)
chain: WSFGEVKKPETINYRTFKPERDGLFCARIFGPVKDYECLCGKYKRLKHRGVICEKCGVEVTQTKVRRERMGHIELASPTAHIWFLKSLPSRIGLLLDMPLRDIERVLYFESYVVIEGGMTNLERQQILTEEQYLDALEEFGDEFDAKMGAEAIQALLKSMDLEQECEQLREELNETNSETKRKKLTKRIKLLEAFVQSGNKPEWMILTVLPVLPPDLRPLVPLDGGRFATSDLNDLYRRVINRNNRLKRLLDLAAPDIIVRNEKRMLQEAVDALLDN
B22: β′1-319 Q300E (pTA617) (enzyme)
chain: B4 chain with Q300E
B23: HMK-His6-β′(100-309), unlabeled (pTA133) (enzyme)
chain: B13 chain
notes: also called unlabeled β′-fragment
B24: N-terminally His6-tagged β′ 1-309, hydroxylamine cleavage fragment (from pTA499) (enzyme)
chain: HHHHHHMKDLLKFLKAQTKTEEFDAIKIALASPDMIRSWSFGEVKKPETINYRTFKPERDGLFCARIFGPVKDYECLCGKYKRLKHRGVICEKCGVEVTQTKVRRERMGHIELASPTAHIWFLKSLPSRIGLLLDMPLRDIERVLYFESYVVIEGGMTNLERQQILTEEQYLDALEEFGDEFDAKMGAEAIQALLKSMDLEQECEQLREELNETNSETKRKKLTKRIKLLEAFVQSGNKPEWMILTVLPVLPPDLRPLVPLDGGRFATSDLNDLYRRVINRNNRLKRLLDLAAPDIIVRNEKRMLQEAVDALLDN

These binders were tested against T1, HMK-His6-σ70, 32P-labeled (pHMK-His6-σ70) (Escherichia coli, UniProt P00579 1-613) (assay: far-Western of whole cell lysate, 32P-σ70 probe).
T1 construct: range 1-613; also called ^32P-labeled ?^70; HMK-?^70

| Binder | binding result |
| --- | --- |
| B1 | binds |
| B2 | binds |
| B3 | binds |

Each binder was assayed against T1, HMK-His6-σ70, 32P-labeled … (assay: far-Western binding, 32P-σ70 probe; grade).

| Binder | binding result |
| --- | --- |
| B4 | binds |
| B5 | no binding |
| B6 | binds |
| B7 | no binding |
| B8 | binds |
| B9 | binds |
| B10 | binds |
| B11 | no binding |
| B12 | no binding |

The binders below were run against T2, σ70 (C132S, C291S, C295S, S442C), labeled with Eu-DTPA-AMCA (pSigma70(442C)) (Escherichia coli, UniProt P00579 1-613) (assay: electrophoretic mobility shift (EMS) assay, native gel).
T2 construct: also called labeled ?^70

| Binder | binding result |
| --- | --- |
| B13 | binds |

The binders below were run against T3, σ70, native, untagged (pLN12) (Escherichia coli, UniProt P00579 1-613) (assay: Ni-NTA co-immobilization, SDS-PAGE).
T3 construct: range 1-613; also called native ?^70

| Binder | binding result |
| --- | --- |
| B14 | no binding |
| B15 | no binding |
| B16 | binds |
| B17 | binds |
| B18 | binds |
| B19 | binds |
| B20 | binds |
| B21 | binds |

What follows are binders tested against T1, HMK-His6-σ70, 32P-labeled … (assay: far-Western of β′1-319 in cell extract, normalized to Western).

| Binder | relative binding against wild type β′1-319 [fold] |
| --- | --- |
| B22 | > 7 |

These binders were tested against T2, σ70 (C132S, C291S, C295S, S442C), … (assay: EMS assay, competition with labeled β′-fragment).

| Binder | binding result |
| --- | --- |
| B23 | binds |

These binders were tested against T3, σ70, native, untagged (pLN12) (assay: mixed with σ70 and passed over Ni-NTA (control)).

| Binder | binding result |
| --- | --- |
| B1 | binds |

Each binder was assayed against T1, HMK-His6-σ70, 32P-labeled … (assay: ordered fragment ladder far-Western, 32P-σ70 probe).

| Binder | binding result |
| --- | --- |
| B24 | binds |
